Read-outs that look alike come from different tables or passages of the source.
Columns and labels:
HLA-A0201 = molecular target: T1, HLA-A0201 (Homo sapiens, UniProt P04439, D140Y/D185E/D98H/E176V/E277Q/G131W/G231S/I119V/I121R/I166T/I218V/L300P/L318F/N151K/N90K/P208A/P217A/Q86G/Q94H/R138H/R169H/T345S); test: T2 assay: HLA-A0201 binding of peptides (stabilisation of HLA-A0201 expression in TAP-deficient T2 cells)
T1 construct: ability of peptides to stabilise HLA-A0201 expression in the TAP-deficient T2 cells; endogenous in cells; host or cells: T2 cells (human, TAP-deficient; ATCC CRL 1992)
Description: By “HLA-binding” peptide we mean a peptide which binds to one or more HLA molecules. Typically, a peptide will show HLA binding in a T2 binding assay when present in a concentration range of 10 μM to 1 nM. Whether or not a peptide of human CD45 is an HLA-binding peptide can be determined using methods known in the art. These methods include the T2 HLA stabilisation assay described in FIG. 1, and the method described by Elvin et al (1993) J. Immunol. Methods 158, 161-171.
Peptide binding was measured using the T2 assay that is based on the ability of peptides to stabilise HLA-A0201 expression in the TAP-deficient T2 cells.
Sixteen peptides of the CD45 molecule were selected and 14 of them we tested in HLA-A0201 binding assays as described in the legend to FIG. 1.

[1] = test system: CTL from HLA-A0201 negative donors; test: Stimulation of peptide-specific allorestricted CTL responses by peptide; format: cell-based, human
Source text: Peptide-specific CTL were isolated from HLA-A0201 negative donors using the method described in WO 97/26328. Three peptide-specific lines were established and found to show specific killing of T2 target cells presenting peptide 1218 but not targets presenting control HLA-A0201− binding peptides (HBV(18-27)).
Peptide-specific CTL were isolated from HLA-A0201 negative donors using the method described in WO 97/26328. Three peptide-specific lines were established and found to show specific killing of T2 target cells presenting peptide 1218 but not targets presenting control peptides.

## FLYDVIAST [huCD45/1218, peptide of human CD45]
HLA-A0201
  HLA-A0201 binding: binds HLA-A0201
HLA-A0201; listed as Peptide 1218
  HLA-A0201 binding: one of the best binders
HLA-A0201; listed as p1218
  HLA-A0201 binding: one of the best binding peptides
HLA-A0201; listed as peptide 1218
  HLA-A0201 binding: one of the best binders
[1]; listed as Peptide 1218
  induction of peptide specific CTL: can induce peptide specific CTL
[1]; listed as p1218
  induction of peptide specific CTL: reliably generate peptide-specific, allorestricted CTL

Reference: patent US20030103946A1, “Immunotherapeutic methods and molecules” (Imperial College Innovations Limited, priority 2000, published 2003)
